We go through four substances from patent US20150267176.

Data set [1] has as its system SCL enhancer TALE-3X FLAG. The settings on record: anti-FLAG ChIP-seq in K562, input 1; top ranked and only reproducible peak; exact SCL target not identified in text (candidates SEQ 9, 11, 37).
For data set [2], the system named is SCL enhancer TALE-LSD1. As to the kind of experiment: cell_activity. The settings on record: K562 ChIP-qPCR vs mCherry; H3K27ac reduced >4-fold.
Data set [3] relates to TALE-LSD1 #11 (ZFPM2 +16). Kind of data set: cell_activity. The settings on record: expression change not significant; histone modification levels at target reduced; +16 matched to #11 by coordinates.
Data set [4] deals with TALE-LSD1 #25 (ZFPM2 +10). As to the kind of experiment: cell_activity. The settings on record: K562 RT-qPCR; +10 enhancer matched to #25 by coordinates; also reduces enhancer histone marks.
Data set [5] concerns TALE-LSD1 #28 (ZFPM2 +45). Kind of data set: cell_activity. The settings on record: expression change not significant; histone modification levels at target reduced; +45 matched to #28 by coordinates.

In the case of SCL enhancer 18 bp TALE target (18/18), in data set [1], the binding signal (tags per 1 kb bin) came to 17.5. The activity (fold reduction of H3K4me2) in data set [2] turned out to be 3.
In turn, TALE #11 target chr8:106,347,824 yielded an activity (% reduction of ZFPM2 expression) in data set [3] of 13.
With TALE #25 target chr8:106,341,287, in data set [4], the activity (fold reduction of ZFPM2 expression) turned out to be 2.
For TALE #28 target chr8:106,376,850, the activity (% reduction of ZFPM2 expression) in data set [5] is 22.
